Data on two molecules can be found in patent US20240174744A1 (SCIRHOM, published 2024).

Assay [1] deals with T1, miR2-FL-WT-T7 (mouse iRhom2 full length wild type C-terminally tagged with 3 consecutive copies of the T7 … (mouse, UniProt Q80WQ6 1-827)).
T1 construct: also called mouse iRhom2 variant expressed by MEF-DKO-miR2-FL-WT-T7 cells
T1 sequence: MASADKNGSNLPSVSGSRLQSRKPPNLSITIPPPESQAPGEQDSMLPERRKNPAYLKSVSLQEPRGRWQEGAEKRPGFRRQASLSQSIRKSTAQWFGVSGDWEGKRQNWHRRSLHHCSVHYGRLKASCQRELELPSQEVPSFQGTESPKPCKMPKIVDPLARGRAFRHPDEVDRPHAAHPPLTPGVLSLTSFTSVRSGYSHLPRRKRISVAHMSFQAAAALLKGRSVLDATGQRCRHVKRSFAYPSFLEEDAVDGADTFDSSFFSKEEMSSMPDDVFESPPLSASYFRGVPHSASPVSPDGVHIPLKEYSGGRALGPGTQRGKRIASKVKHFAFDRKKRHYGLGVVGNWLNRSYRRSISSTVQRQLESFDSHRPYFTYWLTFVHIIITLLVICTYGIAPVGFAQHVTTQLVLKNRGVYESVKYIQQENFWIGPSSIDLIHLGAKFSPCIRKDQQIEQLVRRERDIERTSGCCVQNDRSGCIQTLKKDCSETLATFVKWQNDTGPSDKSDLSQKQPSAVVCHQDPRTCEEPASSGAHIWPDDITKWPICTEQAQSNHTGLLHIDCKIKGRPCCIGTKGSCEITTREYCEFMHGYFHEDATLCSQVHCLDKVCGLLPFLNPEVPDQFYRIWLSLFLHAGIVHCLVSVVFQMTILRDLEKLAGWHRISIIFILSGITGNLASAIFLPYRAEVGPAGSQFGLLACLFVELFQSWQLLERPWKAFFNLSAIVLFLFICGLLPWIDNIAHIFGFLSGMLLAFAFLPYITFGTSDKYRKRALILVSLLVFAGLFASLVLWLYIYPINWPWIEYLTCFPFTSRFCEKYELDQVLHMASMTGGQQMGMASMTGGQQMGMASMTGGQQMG
Briefly: FACS, MEF-DKO-miR2-FL-WT-T7 cells. As to the method:
In brief, immortalized MEF-DKO-EV control cells, MEF-DKO-hiR2-FL-WT-T7 cells and MEF-DKO-miR2-FL-WT-T7 cells were harvested with 10 mM EDTA in PBS, washed and resuspended in FACS buffer (PBS, 3% FBS, 0.05% sodium azide), and seeded in Nunc U-bottom 96-well plates (Thermo Fisher Scientific, USA) at approximately 3×10⁵ cells per well. To pellet cells and remove supernatants, the plates were centrifuged at 1,500 rpm and 4° C. for 3 minutes. For primary staining, cells were resuspended in 100 μl per well of either FACS buffer alone (controls), mouse monoclonal anti-T7 IgG (Merck Millipore, USA) at 3 μg/ml FACS buffer or the purified antibodies 3, 5, 16, 22, 34, 42, 43, 44, 48, and 50 of the present disclosure also at 3 μg/ml FACS buffer and incubated on ice for 1 hour. Afterwards, plates were centrifuged at 1,500 rpm and 4° C. for 3 minutes and washed twice with 200 μl per well of FACS buffer. For secondary staining, cells were spun down and resuspended in 100 μl per well of PE-conjugated goat anti-mouse IgG F(ab′)2 detection fragment (Dianova, Germany) diluted 1:100 in FACS buffer. Protected from light, the cell suspensions were incubated on ice for 1 hour. […] Finally, cells were resuspended in 150 μl per well of FACS buffer and analyzed using a BD Accuri™ C6 Plus flow cytometer (Becton Dickinson, Germany).
In general terms: A flow cytometer gives signals particle by particle.

Assay [2] addresses T2, human iRhom1, endogenously expressed on RH-30 cells (human, UniProt Q96CC6 1-855).
T2 construct: RH-30 cells are described as endogenously negative for iRhom2 but endogenously expressing iRhom1; also called NP_071895.3
T2 sequence: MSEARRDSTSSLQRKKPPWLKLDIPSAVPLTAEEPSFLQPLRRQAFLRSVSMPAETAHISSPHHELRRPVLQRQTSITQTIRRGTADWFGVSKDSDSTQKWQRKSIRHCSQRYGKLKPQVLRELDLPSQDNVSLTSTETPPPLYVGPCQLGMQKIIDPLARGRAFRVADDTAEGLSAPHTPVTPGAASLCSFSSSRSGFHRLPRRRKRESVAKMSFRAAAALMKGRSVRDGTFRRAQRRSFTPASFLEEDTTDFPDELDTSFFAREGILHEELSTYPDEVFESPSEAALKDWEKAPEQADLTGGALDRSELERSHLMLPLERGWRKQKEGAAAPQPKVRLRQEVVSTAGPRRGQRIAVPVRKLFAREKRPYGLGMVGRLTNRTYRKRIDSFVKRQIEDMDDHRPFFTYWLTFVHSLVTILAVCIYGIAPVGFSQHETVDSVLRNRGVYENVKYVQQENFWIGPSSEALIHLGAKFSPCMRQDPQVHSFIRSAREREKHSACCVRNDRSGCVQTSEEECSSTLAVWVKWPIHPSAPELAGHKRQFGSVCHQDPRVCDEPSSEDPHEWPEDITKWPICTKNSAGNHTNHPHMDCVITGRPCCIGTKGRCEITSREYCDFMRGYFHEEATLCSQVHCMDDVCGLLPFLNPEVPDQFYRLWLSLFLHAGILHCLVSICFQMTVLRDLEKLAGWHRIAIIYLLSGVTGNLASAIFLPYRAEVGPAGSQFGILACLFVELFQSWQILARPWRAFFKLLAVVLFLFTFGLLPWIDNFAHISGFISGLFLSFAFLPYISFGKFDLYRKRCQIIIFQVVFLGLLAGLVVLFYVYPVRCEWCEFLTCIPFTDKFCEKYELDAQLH
The assay can be described thus: FACS on RH-30 cells (iRhom1-positive, not iRhom2-positive).

B1: antibody 48 (antibody, V domains shown)
VH: QVQLQQSGTELVRPGTSVKVSCKASGYAFTNYLIEWVKQRPGQGLEWIGVINPGSGFTKYNEKFKGKATLTADKSSSTVYMHLSSLTSEDSAVYFCARGLYRAMDYWGQGTSVTVSS
VL: DIQMTQSPASQSASLGESVTITCLASQTIATWLAWYQQKPGKSPQLLIYGATTLADGVPSRFSGGGSGTKFSFKISSLQAEDFVSYYCQQLYSTPYTFGGGTKLEIK
notes: Mouse IgG, kappa light chain; also called clone #48; purified antibody 48
In the case of B1, the binding result in assay [1] is “no binding (tested: 3 µg/ml)”.

B2: antibody 16 (antibody, V domains shown)
VH: QVTLKESGPGILQPSQTLSLTCSFSGFSLSTFALGVGWIRQPSGRGLEWLAHIWWDDDKYYNPALKSRLTISKDTSKNHVFLKIANVDTADTATYYCARITTYYYGMDYWGQGTSVTVSS
VL: DIVLSQSPATLSVTPGDSVSLFCRASQSIGNHLHWYQQESHASPRLLIKYASQSISGIPSRFSGSGSGTDFTLSINSVETEDFGMYFCQQSYNWPLTFGAGTKLELK
notes: Mouse IgG, kappa light chain; also called clone #16; m16
Regarding B2, in assay [2], the binding result is reported as “no binding (tested: 3 µg/ml)”.
